Experimental data as given in patent US8697369B2, “Method for screening a test substance for activating a receptor associated with FGF 21 activity” (National Institute of Advanced Industrial Science and …, priority 2007, dated 2014).
Entries after “also recorded” stand apart in the source; their conditions may differ.

Legend:
[1] = target: T1, FGFR1c/betaKlotho-expressing BaF3 cells (Mus musculus, UniProt P16092+Q99N32); test: DNA synthesis (thymidine incorporation) in FGFR1c/betaKlotho-expressing BaF3 cells; type: cell-based; settings: BaF3 cells expressing FGFR1c and betaKlotho; presence or absence of heparin
T1 construct: the entire-length cDNA of mouse FGFR1c had been cloned; the entire-length cDNA of mouse betaKlotho was cloned into an animal cell expression vector; expressed in transfected cells; host or cells: BaF3 (mouse pro-B) cells
T1 sequence (P16092 22-822): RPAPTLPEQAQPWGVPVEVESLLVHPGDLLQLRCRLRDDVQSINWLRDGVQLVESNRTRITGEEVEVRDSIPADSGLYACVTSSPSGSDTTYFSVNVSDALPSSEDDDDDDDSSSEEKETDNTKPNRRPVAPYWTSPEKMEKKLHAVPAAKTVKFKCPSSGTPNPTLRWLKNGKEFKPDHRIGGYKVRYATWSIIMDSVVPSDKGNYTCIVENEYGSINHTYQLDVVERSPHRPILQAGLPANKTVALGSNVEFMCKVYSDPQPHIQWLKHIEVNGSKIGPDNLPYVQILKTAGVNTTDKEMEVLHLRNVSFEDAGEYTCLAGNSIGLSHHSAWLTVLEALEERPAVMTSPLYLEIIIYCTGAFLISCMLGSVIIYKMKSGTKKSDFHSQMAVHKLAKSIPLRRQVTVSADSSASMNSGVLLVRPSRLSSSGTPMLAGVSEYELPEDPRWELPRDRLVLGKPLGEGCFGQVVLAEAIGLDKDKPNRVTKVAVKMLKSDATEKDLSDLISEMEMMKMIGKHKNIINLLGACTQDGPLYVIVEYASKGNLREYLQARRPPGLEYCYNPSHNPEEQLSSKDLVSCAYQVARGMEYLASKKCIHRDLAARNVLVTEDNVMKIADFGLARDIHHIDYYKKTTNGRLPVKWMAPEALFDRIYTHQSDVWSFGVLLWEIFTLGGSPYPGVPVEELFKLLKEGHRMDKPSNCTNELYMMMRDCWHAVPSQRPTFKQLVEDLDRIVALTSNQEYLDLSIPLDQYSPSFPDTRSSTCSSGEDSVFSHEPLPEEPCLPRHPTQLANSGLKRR
T1 sequence (Q99N32 whole entry): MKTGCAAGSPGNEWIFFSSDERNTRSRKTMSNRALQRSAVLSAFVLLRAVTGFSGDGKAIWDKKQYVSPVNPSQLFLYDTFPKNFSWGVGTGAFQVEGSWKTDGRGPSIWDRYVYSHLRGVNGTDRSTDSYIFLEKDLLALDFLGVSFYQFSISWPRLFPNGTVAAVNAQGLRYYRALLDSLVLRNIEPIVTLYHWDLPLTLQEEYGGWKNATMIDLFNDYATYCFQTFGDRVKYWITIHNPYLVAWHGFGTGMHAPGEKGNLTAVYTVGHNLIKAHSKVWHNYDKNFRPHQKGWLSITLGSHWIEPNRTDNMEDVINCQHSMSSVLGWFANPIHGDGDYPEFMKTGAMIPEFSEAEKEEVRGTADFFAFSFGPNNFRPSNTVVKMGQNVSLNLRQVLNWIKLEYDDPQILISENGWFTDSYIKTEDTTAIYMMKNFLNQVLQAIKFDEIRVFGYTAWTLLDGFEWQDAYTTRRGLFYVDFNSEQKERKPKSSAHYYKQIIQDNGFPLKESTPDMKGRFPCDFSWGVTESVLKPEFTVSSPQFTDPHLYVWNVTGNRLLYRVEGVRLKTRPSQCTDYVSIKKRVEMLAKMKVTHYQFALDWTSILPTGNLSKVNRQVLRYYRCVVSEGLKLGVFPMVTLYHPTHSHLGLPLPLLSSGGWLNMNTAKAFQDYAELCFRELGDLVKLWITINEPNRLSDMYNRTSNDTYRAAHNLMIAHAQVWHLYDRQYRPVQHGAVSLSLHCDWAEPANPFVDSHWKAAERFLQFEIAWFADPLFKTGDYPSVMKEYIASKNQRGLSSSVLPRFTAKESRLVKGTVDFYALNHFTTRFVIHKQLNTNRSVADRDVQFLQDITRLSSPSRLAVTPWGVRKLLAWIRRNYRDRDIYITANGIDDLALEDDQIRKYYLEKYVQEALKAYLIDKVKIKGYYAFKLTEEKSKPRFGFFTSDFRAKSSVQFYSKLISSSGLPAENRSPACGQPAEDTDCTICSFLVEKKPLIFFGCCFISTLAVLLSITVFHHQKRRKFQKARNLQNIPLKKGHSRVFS
Method: (§1) A commonly used measurement method is a cell growth stimulating activity measurement method described in Ornitz, D. M., Xu, J., Colvin, J. S., McEwen, D. G., MacArthur, C. A., Coulier, F., Gao, G. and Goldfarb, M. (1996) Receptor specificity of the fibroblast growth factor family. J Biol Chem, 271, 15292-15297. The summary thereof is as follows. FGF used as a measurement target is added to a culture solution containing a cultured cell having an FGF receptor on the surface thereof, and the obtained mixture is cultured for a certain period of time. Thereafter, a labeled thymidine is added to the culture solution, followed by further culture for a certain period of time. By measuring the amount of the labeled thymidine incorporated into polymeric DNA during the culture, the degree of FGF to activate DNA synthesis is evaluated. (In the present invention as well, this method was adopted when the activity of FGF21 was measured in Examples 4, 5, 6, 8, 9, and 10.)
FGFR1c-expressing BaF3 cells and FGFR1c- and betaKlotho-expressing BaF3 cells were prepared as follows. In the case of FGFR1c-expressing BaF3 cells, an animal cell expression vector into which the entire-length cDNA of mouse FGFR1c had been cloned (described in Ornitz, D. M., Xu, J., Colvin, J. S., McEwen, D. G., MacArthur, C. A., Coulier, F., Gao, G. and Goldfarb, M. (1996) Receptor specificity of the fibroblast growth factor family. J Biol Chem, 271, 15292-15297.) was introduced into BaF3 cells by an electroporation method. The cells were then cultured in the presence of G418 for approximately 2 weeks, so as to obtain drug-resistant clones. Thereafter, such clones were obtained as those capable of growing as a result of FGF1 stimulation. In the case of both FGFR1c- and betaKlotho-expressing BaF3 cells, the entire-length cDNA of mouse betaKlotho was cloned into an animal cell expression vector, and it was then introduced into the FGFR1c-expressing BaF3 cells. The cells were then cultured in the presence of Puromycin and G418 for approximately 2 weeks, so as to obtain drug-resistant clones. In the case of only betaKlotho-expressing BaF3 cells, a betaKlotho-expressing vector was introduced into BaF3 cells, and Puromycin-resistant clones were then obtained. The BaF3 cells, into which the aforementioned genes had been each introduced, were maintained in an RPMI1640 medium containing 10% FBS and interleukin 3 (IL3, supplied by adding a 5% condition medium of WEHI-3 cells). For the growth stimulation experiment, the cells were washed with an RPMI1640 medium, and they were then suspended in an RPMI1640 medium containing 10% FBS, followed by inoculating the suspension on a culture plate. Thereafter, the resultant cells were used.
Immediately after inoculation, BaF3 cells that had expressed each clone and only FGFR1c were stimulated by addition of FGF21 (open bar) or PBS (filled bar) used as a control in the presence of heparin, and they were then cultured for 42 hours. Thereafter, tritium-labeled thymidine was added to the culture solution, and the culture was further continued for 6 hours. Thereafter, the amount of thymidine incorporated into the cells was measured, so as to evaluate DNA synthesis. A DNA synthesis value obtained when the cells were not stimulated with FGF21 was defined as 1, and the ratio of a DNA synthesis value obtained by stimulating with FGF21 to the aforementioned DNA synthesis value was expressed using magnification. […]

[2] = target: T2, R1c/betaKlotho-expressing cells (Mus musculus, UniProt P16092+Q99N32); test: Phosphorylation of FRS2 and MAPK (Western blotting) in R1c/betaKlotho-expressing cells; type: cell-based; settings: presence of heparin; 10 minutes stimulation
T2 construct: the entire-length cDNA of mouse FGFR1c had been cloned; the entire-length cDNA of mouse betaKlotho was cloned into an animal cell expression vector; expressed in transfected cells; host or cells: BaF3 (mouse pro-B) cells
T2 sequence (P16092 22-822): as the sequence (P16092 22-822) above
T2 sequence (Q99N32 whole entry): as the sequence (Q99N32 whole entry) above
Method: (§2) Each FGFR/betaKlotho-expressing cells obtained in Example 6 were stimulated with FGF, and the activated state (phosphorylated state) of a signaling molecule FRS2 (fibroblast growth factor receptor substrate 2) located downstream of FGFR, and that of MAPK (mitogen activated protein kinase; alias: ERK (extracellular signal-regulated kinase; in general, there are two types of ERKs, namely, ERK1 with a molecular weight of 44 kDa and ERK2 with a molecular weight of 42 kDa)), were analyzed. Different types of cells were stimulated with each FGF in the presence of heparin for 10 minutes, and a cell lysate was then prepared. Thereafter, the phosphorylated degree was evaluated by measuring it by a Western blotting method using a commercially available anti-phosphorylation FRS2 antibody or an anti-phosphorylation MAPK antibody.

[3] = test system: FGFR4/betaKlotho-expressing cells; test: Phosphorylation of FRS2 and MAPK (Western blotting) in FGFR4/betaKlotho-expressing cells; type: cell-based, mouse; settings: presence of heparin; 10 minutes stimulation
Sequence of FGFR4/betaKlotho-expressing cells (Q03142 143-366 limits assumed): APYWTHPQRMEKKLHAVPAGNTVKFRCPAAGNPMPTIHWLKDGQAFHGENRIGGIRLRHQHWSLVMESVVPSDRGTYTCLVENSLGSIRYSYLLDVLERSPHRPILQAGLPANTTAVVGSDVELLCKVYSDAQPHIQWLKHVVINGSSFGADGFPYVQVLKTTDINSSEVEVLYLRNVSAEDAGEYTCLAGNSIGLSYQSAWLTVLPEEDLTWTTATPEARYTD
Sequence of FGFR4/betaKlotho-expressing cells (as listed by the source): as the sequence (Q99N32 whole entry) above
Method: as §2

[4] = test system: FGFR4/betaKlotho-expressing BaF3 cells; test: DNA synthesis (thymidine incorporation) in FGFR4/betaKlotho-expressing BaF3 cells; type: cell-based, mouse; settings: BaF3 cells expressing FGFR4 and betaKlotho; presence of heparin
Sequence of FGFR4/betaKlotho-expressing BaF3 cells (Q03142 17-366 limits assumed): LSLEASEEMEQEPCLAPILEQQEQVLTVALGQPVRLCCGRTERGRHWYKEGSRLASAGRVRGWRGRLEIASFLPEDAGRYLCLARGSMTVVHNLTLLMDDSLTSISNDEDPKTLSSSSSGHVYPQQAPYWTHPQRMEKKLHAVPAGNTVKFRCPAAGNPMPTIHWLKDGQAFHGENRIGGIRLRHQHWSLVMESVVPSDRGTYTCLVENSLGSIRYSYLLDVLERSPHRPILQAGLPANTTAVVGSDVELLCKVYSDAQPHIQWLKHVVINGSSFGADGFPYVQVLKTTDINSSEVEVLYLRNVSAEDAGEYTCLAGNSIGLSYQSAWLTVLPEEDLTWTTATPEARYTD
Sequence of FGFR4/betaKlotho-expressing BaF3 cells (Q99N32 whole entry, further chain): as the sequence (Q99N32 whole entry) above
Method: as §1
(§3) Whether other receptor molecules can also act as such FGF receptors was examined. An expression vector containing each FGFR (FGFR1b, R1c, R2b, R2c, R3b, R3c, and R4) (described in Ornitz, D. M., Xu, J., Colvin, J. S., McEwen, D. G., MacArthur, C. A., Coulier, F., Gao, G. and Goldfarb, M. (1996) Receptor specificity of the fibroblast growth factor family. J Biol Chem, 271, 15292-15297.) was introduced into betaKlotho-expressing BaF3 cells, so as to obtain clones that were resistant to Puromycin and G418, thereby obtaining FGFR/betaKlotho-expressing cells. Such cells were stimulated with FGF21, and the amount of DNA synthesized was measured.
(§4) The activity of FGF21 to stimulate the DNA synthesis of BaF3 cells that had expressed each FGFR (FGFR1c, R2c, F3c, and R4) as well as betaKlotho was compared with the activity of FGF19, which was evolutionally relative to FGF21. […] The cells were stimulated with FGF21, FGF19, and FGF1 in the presence of heparin, while changing the amounts of FGF21, FGF19, and FGF1, as shown in the figure, and the amount of DNA synthesized was then measured.

[5] = target: T3, FGFR2c/betaKlotho-expressing BaF3 cells (Mus musculus, UniProt P21803+Q99N32); test: DNA synthesis (thymidine incorporation) in FGFR2c/betaKlotho-expressing BaF3 cells; type: cell-based; settings: BaF3 cells expressing FGFR2c and betaKlotho; presence of heparin
T3 construct: the entire-length cDNA of mouse betaKlotho was cloned into an animal cell expression vector; expressed in transfected cells; host or cells: BaF3 (mouse pro-B) cells
T3 sequence (P21803 22-821): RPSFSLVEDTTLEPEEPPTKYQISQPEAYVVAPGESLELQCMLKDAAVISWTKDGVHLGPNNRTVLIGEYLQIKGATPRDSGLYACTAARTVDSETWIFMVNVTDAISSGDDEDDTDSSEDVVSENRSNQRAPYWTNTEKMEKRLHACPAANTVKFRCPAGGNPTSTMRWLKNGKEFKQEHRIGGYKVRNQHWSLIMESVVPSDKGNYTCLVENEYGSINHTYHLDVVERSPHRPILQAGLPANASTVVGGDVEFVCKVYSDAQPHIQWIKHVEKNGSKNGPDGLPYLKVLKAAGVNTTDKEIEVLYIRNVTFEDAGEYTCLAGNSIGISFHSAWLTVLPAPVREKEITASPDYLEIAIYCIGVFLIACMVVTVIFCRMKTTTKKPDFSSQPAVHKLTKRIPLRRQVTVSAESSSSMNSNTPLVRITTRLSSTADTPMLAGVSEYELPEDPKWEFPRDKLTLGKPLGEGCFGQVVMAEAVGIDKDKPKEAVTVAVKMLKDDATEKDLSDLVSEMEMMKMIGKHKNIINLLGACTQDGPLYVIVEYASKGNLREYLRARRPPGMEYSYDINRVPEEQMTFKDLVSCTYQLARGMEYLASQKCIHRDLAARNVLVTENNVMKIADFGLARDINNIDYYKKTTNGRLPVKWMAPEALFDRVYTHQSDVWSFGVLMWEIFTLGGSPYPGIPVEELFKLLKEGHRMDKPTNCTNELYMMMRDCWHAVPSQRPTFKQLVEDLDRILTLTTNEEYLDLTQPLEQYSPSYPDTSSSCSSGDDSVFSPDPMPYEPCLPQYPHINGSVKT
T3 sequence (Q99N32 whole entry): as the sequence (Q99N32 whole entry) above
Method: as §1, §3, §4

Row | DNA synthesis (thymidine incorporated into the cells) [5] | Molecule | DNA synthesis (thymidine incorporated into the cells) [1] | phosphorylation of FRS2 and MAPK [2] | phosphorylation of FRS2 and MAPK [3] | DNA synthesis (thymidine incorporated into the cells) [4]
1 | reacts with all of the receptors | FGF1: conventional FGF used as a control | reacts with all of the receptors | significantly increase the phosphorylation | significantly increase the phosphorylation | reacts with all of the receptors
2 | slightly react with FGFR2c | FGF21: fibroblast growth factor 21; mouse-derived protein used in Examples 1-7 and 10-13 (protein) AYPIPDSSPLLQFGGQVRQRYLYTDDDQDTEAHLEIREDGTVVGAAHRSPESLLELKALKPGVIQILGVKASRFLCQQPDGALYGSPHFDPEACSFRELLLEDGYNVYQSEAHGLPLRLPQKDSPNQDATSWGPVRFLPMPGLLHEPQDQAGFLPPEPPDVGSSDPLSMVEPLQGRSPSYAS | reacted with FGF21; also recorded: dose-dependently stimulate DNA synthesis; also recorded: activates; also recorded: able to act on FGFR1c-expressing cells | increases the phosphorylation | only in FGFR1c/betaKlotho-expressing cells and FGFR3c/betaKlotho-expressing cells | reacts only with FGFR1c and FGFR3c
